Test: soluble on expression in E. coli; label from the status in PepcDB or PDB records
In the case of “MGSDKIHHHHHHMKIAIASGKGGTGKTTVAVNFAQVLAAAGQEVTLLDCDVEEPNVHLFLHPEFDSVSAVETTIPQVDEEKCTGCRVCAEVCEYHALAVLGKNVLVFPELCHACGACVRFCPEEAIVEIPREIGTIRKGRKGKIRLIEGRLNVGEVMSPAVIERVKKIGLDGKIGIIDAPPGTSCPVIAAVRDTDGVLLVTEPTPFGLYDLKLAVGMVRLLGIPCAVAINRSDLGEKELWRYCSDERIPIILEIPNDRRIAEAYSRGRTIIEELPEYREKFLQGWQALLESCSIA”, the “soluble on expression in E. coli” value is reported as “not soluble”. With “MSGVLNTVDQRTNLVGENRLELLLFTLNSRQLFAINVFKVKEVIKLPPLTKLPGSHYNIRGVASLRGEAVPVIDLRCSIGFPPLRGEAEEENLIVTEYNRSVQGFLVGPVRNIINTAWTEIQPPPSTSGRSNYLTAITQVKDGDTSQIVEIIDVEKVLAEIVHYDVTISEDILDHDLSQSMVGRN” the “soluble on expression in E. coli” value was “not soluble”. With “MSTKYLFIYNEIREKILCNKYTMNEQLPDEMTLAKQFACSRMTIKKALDLLVSEGLIFRKRGQGTFVLSRGSSKRKLIVPERDIRGLTKISEDAHSTIDSRIIHFKLEFANEFLAEKLQVALQSPVYNIYRLRIIDGKPYVLEQTYMSTDVIPGITEDILQKSIYNYIEGKLGLHIASATKILRASSSSENEQHYLQLLPTEPVFEVEQVAYLDNGTPFEYSISRHRYDLFEFNSFALRHSS” the “soluble on expression in E. coli” value was “not soluble”. With “MGSDKIHHHHHHMIGQSLFIRGARGVTLTPSGERYFQDVTTILHNLMLATEKAADKSPKDSLYIHSSPSFGLLWLLPRLESFKEKFPMIQVNLSCSYENLHFTRDKIDIDIRHGLPNWTGVEIRTIRNEKLEVLASPKLLERSPVHKPQDLLKKELILSRSTLVTWPQWFAHQGLSIPEFPYTLSFDRSYMSLEAATHGLGFVLESNLLTQNYLESGKLVRVFADELSIPISAHHLVYPRTHQFIPKIELFLNWIHDELAG” the “soluble on expression in E. coli” value was “not soluble”. With “MASPISHSSHENASGKYGYGDESQHGKNFHQKAEHSGHEAKEKGYSQDGKAADHDALHKDAAEHKQNKEAHQSGSGNKYVDDASNYNKDVKTKTFGFFDYRYVQPQYHMEQYHTDEKHANKYAGDEHNAGQQHKDNGGYHADGHQGYDKAQEKHGASHTNYGNEDAGHKSKYDDNEGKYGDHTDGYYNKGYDNYGQGHDSESYQPSYYQPKPKYYGGHQSHYQPSARHSSPYQGDQYYGYEAPHY” the “soluble on expression in E. coli” value was “not soluble”. With “MKKTIQQLVLERILILDGAMGTMIQQYNLREEDFRNERFAHIPGQLKGNNDLLCLTRPDVIRDIHRKYLEAGADIIETNTFSSTTISMADYHVQEYVREMNQAAVKLAREVADEYTALNPDKPRFVAGSVGPTNKTCSMSPDVNNPAYRAVTYDEMADAYQQQMEAMLESGVDALLIETIFDTLNAKAAILAAERAMKATGVKVPVMLSVTVSDTGGRTLSGQTLEAFLASVQHADIFSVGLNCSFGARQLKPFLEQLAARAPYYISAYPNAGLPNSLGKYDQTPADMAHEVKEYVHEGLINIIGGCCGTTDAYIAEYPALIAGAKPHIPVCKPDCMWLSGLELLEVKPEINFVNVGERCNVAGSRKF” the “soluble on expression in E. coli” value was “not soluble”. For “MRLFIVQAMFTEYRPTHGYDEYFCREQSAPRADLEPLLSSLGAMGLAELNRSHASASNLLRRLGATFRLNGSGLHGGERILPFDPLPRLIHRQEWSVLERGLVQRLEAIDQFLADVYGPQRILNDGVIPREDVESSQGWRPQMQDIAVPLNRWCHISGLDLIRDGDGTWRVLEDNLRCPSGVAYFLENRRVMKRLFPSLFQGRTVQPIDDYPSHLLRTLQDLAPWSDAPRVVLLTPGVFNSAYFEHSYLAQQMGIALVEGRDLICEDGRVWMRSTAGREPVDVIYRRIDDDFLDPNVFRRDSMLGVPGLIDAMRSGRVAIANAPGSGVADDKLIYAYVPAMIRYYLNEEPIIDNVPTYLCSRDDDRRYVLEHLNELVVKSVAEAGGYGMLIGPHASSEEIESFAVKIKAHPRNFIAQPTLQLSTVPSLSEGELYPCHVDLRPYVLRGKSDWVSPGGLTRVALKRGSLVVNSSQGGGCKDTWVVSDSAVTAGNQELVPC”, the “soluble on expression in E. coli” value was “not soluble”. For “MKVLILGGGYTGQRLAQLLAAQSIPVLATTRSGQWPLDEPCVTFDAGSTPLLLPDPAALAGVTHVLSTIPPLGDGGDPVLSTLLPTLQYLSLQWCGYLSTTGVYGDTQGAWVDEDSPLQSTNRRSQQRIAIEAQWLASGLPAHIFRLPGIYGPGRSSFDRLRRGDNQRLLKPGHVFCRIHVDDIAAALWASLQQPNPGRIYNVSDDFPCEPALLIEAAAQLMGVELPPPLPVDAVELSPMAASFWSECRRVRNDRLKQELGVQLRYPSYREGLAAIWAAELEHHHHHH”, the “soluble on expression in E. coli” value was “not soluble”. In the case of “MQLLTEKDRPEEEKREETWRRLKRDIASSANTIHEIDTGKARGYNRALFVSSIFNKVSTFAGHGDVEIVQKAIDFISEYNAGIKKPVITPRHRFFQLAETASRMRDKLKETQELENREVTFEGGILVWNYQESRLQVFFNKIPEESKRRELKSSGFHWSPRNRAWQRQLNPNAVSAAKRILNL”, the “soluble on expression in E. coli” value is reported as “not soluble”. With “MLTSHFPLPFAGHRLHIVDFDASSFREHDLLWLPHHDRLRSAGRKRKAEHLAGRIAAVHALREVGVRTVPGMGDKRQPLWPDGLFGSISHCATTALAVISRQRIGIDIEKIMSQHTATELAPSIIDSDERQILQASLLPFPLALTLAFSAKESVYKAFSDRVTLPGFNSAKVTSLTATHISLHLLPAFAATMAERTVRTEWFQRDNSVITLVSAITRVPHDRSAPASILSAIPR” the “soluble on expression in E. coli” value was “not soluble”. In the case of “MGSDKIHHHHHHMPYTTYRQQAVDEQTLAQTELNQYIADQAQVIAPEEYTSVEINFYYHEIYISSQLIAQIAYDHNEFVTQRWLVLVNDKEEFRANTWAKCYRYICTHHKDGSLPVQERETPAATTGNEIMVQIADECENLGLELLEDGIYRGDQKLGKAGQTNGNWWFIRTDDATQQQRFCNSASDAMWLVSRAELPEYTDTLNEYLQYRPLEQMPSVELKHLLDSAELTAA”, the “soluble on expression in E. coli” value is reported as “not soluble”. In the case of “MGSDKIHHHHHHMHFNAPSYPKQWFDTKSAGTPVVILTGMGCSYEEWYEVIQSLRPAHRILSFHRHSWKEGDGIHRTGHAIQQLQTLLSGSNVDEPILLIGHSYGGLIAQEFTKLFPERIKGLILVDSTSVDLHELDALDTPVLDAVSSDAAWQALCRDYAIKTKEQLKQLLQPVLTGAQKRLPQAVQDALVDFQTEPDLYAMMDSEVEHWKTDAARIRTGPFPDVPLIVIGRDPELSIQDGINDGLPEDELRQVEETWHRLVLRQATLTKQADFITATGAGHAIHLDRPDLVISAVTKLDVT”, the “soluble on expression in E. coli” value is reported as “not soluble”. In the case of “MRVRSETVNKPQSLRHALNKAVPYVRNNPDKLHLFVDNGSLVATGASSMSWEYRYTLNAVIEDFSGDQNLLMAPVLLWLRDNQPDAINNPALREKLFTFEVDILRNDVCDISLNLQLTERVLVSTDGSVSSVEAVAEPDEPEEMWTVKRG”, the “soluble on expression in E. coli” value is reported as “not soluble”. For “MVEDPYIWMENLQDNRVREIIERENKKFREFIGELSDKLFPEVWEYFSIPTVTMAKITKRGIIVSYNEKDRSIIRWLDGDVIVDSKEIEREVGDEVLLQGFTADDEGEKLAYSFSIGGADEGITRIIDLKSGEVIEEIKPSIWNILFLKDGYYFARFYRKEKTPDGVDPPAERVFWKDKEGEKMVFGEGLTSGYFMTLRKSSDDKFAMLTLNYGWNQGEIYVGPIDKPQEWRKVYSATVPVEPVDIVNGKLYILTREGRGMGKVIAVKDGEIEEVIPEGEFPLEWAVIVDDKIVAGRLVHASHRLEVYTLKGEKIEEVTFDIPGALHPLDKNNKEVLLRYISFTIPYRLYEFKDKLRIIEERKVEGKFKVEEDFVVSKDGTRIHYFIIKGEKDEKKAWVFGYGGFNIALTPRFFPQVIPFLKRGGTFVMANLRGGSEYGEEWHRAGMRENKQNVFDDFIAVLEKLKKEGYKVAAWGRSNGGLLVSATLTQRPDIMDAALIGYPVIDMLRFHKLYIGSVWIPEYGNPDDPKDREFLLKYSPYHNVDPNKKYPLTLIYTGLHDDRVHPAHALKFFMKLKEVGAPVYLRVETKSGHMGASPETRARELTDLLAFVLKSLS”, the “soluble on expression in E. coli” value was “soluble”. In the case of “MAILLNRPTLSRLPWFPLRPEDFTTLLQTADFRLRLLEAIAAATRRVYICALYLENEEAGQEMLDALYRAKQRNPQLDVRVMVDWHRAQRGRIGEDQSHCNASWYREEAARRELDIPIYGVPVQTRELFGVLHLKGFVIDDTVFYSGASLNNVYLHKLDKYRFDRYHLIRSPELADAMAGFMAEQFFNDPAVFRLDKPTPSTRSIRKEIRQLRDKLSHSQYRPGSAHAAPDELAISPIVGIGKGNRLNRAILDVIAGAQRRLFICTPYFNFPRAVVLEINRALRRGVEIDIVVGDKTANDFYIPPEQPFRVIGALPYLYEMNLRRFAKRQRQYLSREQLRVRLWKDGDNTYHLKGIWSDDRFILLTGNNLNPRAFRLDLENALLLRDPQGALRGQSAAEQQSILRHTTQLSHYRQLEDVRAYPEQIKKLLTRLSRVRIDRMLNLMLLEHHHHHH”, the “soluble on expression in E. coli” value is reported as “soluble”. For “MTSMDNSARGQRHNEFADSAARIEAANDMSISAGRDVINKGSVLESGRDMSIQAGRDVTIAPTEVTNSLFSDSKHNSSDITQLGSTASAGRDLTVQAGRDISVIASQIDAKRDIAMAATENLTISSAADEEHSLSKSKKLTRQEDHVSQIAADLDAGGSVALQAGQNLAVISSRITAGKEAYLVAGDQLDILAAQDSDYSLYDKKKKGSFGAKKTKRDEITDVKNIGSEITTGGDLLLASGGDQKYQVAKLESGKDLTIDSGGAVTFEGVKDLHQESHEKSKSDLAWNSSKGKGNTDETLRQSELVAKGELAIRAVEGLKIDIKQVDQQSVSQTIDAMVKADPQLAWLKEAELRGDVDWRQVKEVHDSLIGTAVNAAVVAGLTSATSQAVISTVNNKGNLGAALKDVTSAESMKGYLVSGLAAGFAAGILDPAYGVSPENTAKATHGFDLGSVDGFTNYAGYTLAQGGFSAAANTAINGGSLTDNLAQAAISSAADAMSAGIYNKLGTKLEFSGLPSKLAAHALVGGLIAELAGGDFRSGALAAGANEAFVNLVGDKIFVGESHDKLLAMTSQLVGLTVAAAAGGTDKDQAVAGWVAQQATTFNYLEHSEKEAFIKEMLGCDTDKCAREKWEQGKFDEDSQANVQYANDIAGSQRARETRDRVLDSLGSILDMNCPTSACEGYKQLLMERSLGTLKNLNQVIKDWASVDQRLGLMAGAAVGGQANYKCGSTASRSAGVDLEHHHHHH”, the “soluble on expression in E. coli” value was “soluble”. With “MIHEITLDGKIVRYKVVEKPVKYVTLRFLEDGTLLVVTPSKEIVREVLIKKRNWILSKLSIIEEAKELAGEGFPLFGRFYSLEIGEKFEIDDKNRIIIYPGIDVLRDWIKKEVKRRAQEISKEFGVAPKRIYVRVMKTKWGSTTWRKSVTLNLSSVALPEELFHYLVIHELAHLIELNHSKRFWSIVARYHPDYKEKRRELKKWWFIVHLNETWRAILQWPGGGSSSSWALEHHHHHH” the “soluble on expression in E. coli” value was “soluble”. For “MIITTTPTVENRQIIEYKGLVFGEVVAGANIIRDFFASITDMIGGRSGVYEDKLNVARQEALVELQKQARNIGANAVIGVSIQYQSMGKKDMFIIVATGTAVVIGLEHHHHHH”, the “soluble on expression in E. coli” value was “not soluble”. With “MRMSKMARKDPTIEFCQLGLDTFETKYITMFGMLVSCSFDKPAFISFVFSDFTKNDIVQNYLYDRYLIDYENKLELNEGFKAIMYKNQFETFDSKLRKIFNNGLRDLQNGRDENLSQYGIVCKMNIKVKMYNGKLNAIVRECEPVPHSQISSIASPSQCEHLRLFYQRAFKRIGESAISRYFEEYRRFFPIHRNGSHLA” the “soluble on expression in E. coli” value was “soluble”. For “MGSDKIHHHHHHMTAPHTETDSTQQFLDSMPELKPGEKFQFACHPGVACFNACCSDLTMPLSPYDVLRLRQETGQDSEGFISTFARVETYPDTNFPILYMKMTDGPVRPCPFVSQAGCQVYPNRPAACRTYPLGRGTRVDAQGRLVEQYFIIAEQHCHGFAEEPVWTSEEWLQDQGLARYNYFGDRYTRLMGRAMETGLVLTQKQLTLCLLALYEADRFGAFISGVNLFARLNVSAQEQARILEDEEARLEFGFDWTELVLFGDNERLQVVNP”, the “soluble on expression in E. coli” value was “not soluble”.

Reference: the DeepSol protein solubility set
